Experimental data from US20220119553A1 (Sanofi, published 2022).

T1: recombinant human IL4 (human, UniProt P05112 25-153)
T1 sequence (looked up): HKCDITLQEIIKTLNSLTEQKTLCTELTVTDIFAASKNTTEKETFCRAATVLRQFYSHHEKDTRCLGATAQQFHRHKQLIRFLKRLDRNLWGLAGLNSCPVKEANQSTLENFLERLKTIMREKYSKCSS

T2: human CD19 (ELISA antigen) (human, UniProt P15391 20-291, limits assumed)
T2 sequence (looked up): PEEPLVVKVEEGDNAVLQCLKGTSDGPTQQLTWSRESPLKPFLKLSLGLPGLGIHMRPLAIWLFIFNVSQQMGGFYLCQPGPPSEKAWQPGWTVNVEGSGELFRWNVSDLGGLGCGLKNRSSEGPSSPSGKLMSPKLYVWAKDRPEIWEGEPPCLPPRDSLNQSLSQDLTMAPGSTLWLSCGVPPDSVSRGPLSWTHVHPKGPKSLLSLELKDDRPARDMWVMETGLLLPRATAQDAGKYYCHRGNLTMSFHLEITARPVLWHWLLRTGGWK


Columns and labels:
[1] = biological target: T1, recombinant human IL4; assay: cell-based or functional assay
[2] = biological target: T1, recombinant human IL4; assay: SPR (BIACORE 3000), antibody captured, human IL4 as analyte
[3] = biological target: CD38 on human multiple myeloma cells (human, UniProt P28907 1-300); assay: cell-based or functional assay
[4] = biological target: T2, human CD19 (ELISA antigen); assay: ELISA on coated antigen, detection with HRP-conjugated anti-Fab secondary antibody, OD450
Description: The coated plate was blocked using 5% skim milk+2% BSA in PBS for one hour at RT, followed by washing with PBS+0.25% Tween 20 three times (Aqua Max 400, Molecular Devices). Serial dilution of antibodies (trispecific and control Abs) were prepared and added onto the ELISA plates (100 μl/well in duplicate), incubated at RT for one hour, followed by washing 5 times with PBS+0.25% Tween 20.
The reaction was terminated by adding 50 μl 1M H₂SO₄, and OD₄₅₀ was measured using SpectraMax M5 (Molecular Devices) and analyzed using SoftMax Pro6.3 software (Molecular Devices). […] EC50 was calculated using the same software.

Row | IL4 IC50 (HEK Blue reporter assay) [1] | Kd [2] | No. of ILs Bound [2] | kDa Bound [2] | koff [2] | kon [2] | binding result [4] | Binder | EC50 (pM), antibody-mediated cell killing of RPMI8226 cells [3]
1 | 0.013 µg/mL | 5.88 pM | 1 | 17 kDa | 0.00028 s⁻¹ | 4.77e+07 M⁻¹ s⁻¹ |  | Binding Protein 16 (bispecific antibody, human IgG1, kappa, lambda, Bispecific trivalent (CODV-Fab) × Fab-IgG1 Fc; two IL13 sites, one IL4 site; also called IL13 × (IL13 × IL4); (anti-IL13 × anti-IL4) × anti-IL13) heavy 1: not shown light 1: DIVLTQSPASLAVSLGQRATISCRASESVDSYGQSYMHWYQQKAGQPPKLLIYLASNLESGVPARFSGSGSRTDFTLTIDPVQAEDAATYYCQQNAEDSRTFGGGTKLEIKGQPKAAPSVTLFPPSSEELQANKATLVCLISDFYPGAVTVAWKADSSPVKAGVETTTPSKQSNNKYAASSYLSLTPEQWKSHRSYSCQVTHEGSTVEKTVAPTECS heavy 2: not shown light 2: not shown | 
2 | 0.0146 µg/mL | 10.2 pM | 1 | 18 kDa | 0.000359 s⁻¹ | 3.52e+07 M⁻¹ s⁻¹ |  | Binding Protein 18 (bispecific antibody, human IgG1, kappa, lambda, Bispecific trivalent (CODV-Fab) × Fab-IgG1 Fc; two IL13 sites, one IL4 site; also called IL13 × (IL4 × IL13); (anti-IL4 × anti-IL13) × anti-IL13) heavy 1: not shown light 1: DIVLTQSPASLAVSLGQRATISCRASESVDSYGQSYMHWYQQKAGQPPKLLIYLASNLESGVPARFSGSGSRTDFTLTIDPVQAEDAATYYCQQNAEDSRTFGGGTKLEIKGQPKAAPSVTLFPPSSEELQANKATLVCLISDFYPGAVTVAWKADSSPVKAGVETTTPSKQSNNKYAASSYLSLTPEQWKSHRSYSCQVTHEGSTVEKTVAPTECS heavy 2: not shown light 2: not shown | 
3 |  |  |  |  |  |  |  | Binding Protein 5 (other) heavy 1: QVQLVQSGAEVAKPGTSVKLSCKASGYTFTDYWMQWVKQRPGQGLEWIGTIYPGDGDTGYAQKFQGKATLTADKSSKTVYMHLSSLASEDSAVYYCARGDYYGSNSLDYWGQGTSVTVSSASTKGPSVFPLAPCSRSTSESTAALGCLVKDYFPEPVTVSWNSGALTSGVHTFPAVLQSSGLYSLSSVVTVPSSSLGTKTYTCNVDHKPSNTKVDKRVESKYGPPCPPCPAPEFLGGPSVFLFPPKPKDTLMISRTPEVTCVVVDVSQEDPEVQFNWYVDGVEVHNAKTKPREEQFNSTYRVVSVLTVLHQDWLNGKEYKCKVSNKGLPSSIEKTISKAKGQPREPQVYTLPPCQEEMTKNQVSLWCLVKGFYPSDIAVEWESNGQPENNYKTTPPVLDSDGSFFLYSKLTVDKSRWQEGNVFSCSVMHEALHNHYTQKSLSLSLGK light 1: DIVMTQSHLSMSTSLGDPVSITCKASQDVSTVVAWYQQKPGQSPRRLIYSASYRYIGVPDRFTGSGAGTDFTFTISSVQAEDLAVYYCQQHYSPPYTFGGGTKLEIKRTVAAPSVFIFPPSDEQLKSGTASVVCLLNNFYPREAKVQWKVDNALQSGNSQESVTEQDSKDSTYSLSSTLTLSKADYEKHKVYACEVTHQGLSSPVTKSFNRGEC heavy 2: QVQLVQSGAEVVKPGASVKVSCKASGYTFTSYYIHWVRQAPGQGLEWIGSIYPGNVNTNYAQKFQGRATLTVDTSISTAYMELSRLRSDDTAVYYCTRSHYGLDWNFDVWGKGTTVTVSSSQVQLVESGGGVVQPGRSLRLSCAASGFTFTKAWMHWVRQAPGKQLEWVAQIKDKSNSYATYYADSVKGRFTISRDDSKNTLYLQMNSLRAEDTAVYYCRGVYYALSPFDYWGQGTLVTVSSRTASTKGPSVFPLAPCSRSTSESTAALGCLVKDYFPEPVTVSWNSGALTSGVHTFPAVLQSSGLYSLSSVVTVPSSSLGTKTYTCNVDHKPSNTKVDKRVESKYGPPCPPCPAPEFLGGPSVFLFPPKPKDTLMISRTPEVTCVVVDVSQEDPEVQFNWYVDGVEVHNAKTKPREEQFNSTYRVVSVLTVLHQDWLNGKEYKCKVSNKGLPSSIEKTISKAKGQPREPQVCTLPPSQEEMTKNQVSLSCAVKGFYPSDIAVEWESNGQPENNYKTTPPVLDSDGSFFLVSKLTVDKSRWQEGNVFSCSVMHEALHNHYTQKSLSLSLGK light 2: DIVMTQTPLSLSVTPGQPASISCKSSQSLVHNNANTYLSWYLQKPGQSPQSLIYKVSNRFSGVPDRFSGSGSGTDFTLKISRVEAEDVGVYYCGQGTQYPFTFGSGTKVEIKGQPKAAPDIQMTQSPSSLSASVGDRVTITCQASQNIYVWLNWYQQKPGKAPKLLIYKASNLHTGVPSRFSGSGSGTDFTLTISSLQPEDIATYYCQQGQTYPYTFGQGTKLEIKTKGPSRTVAAPSVFIFPPSDEQLKSGTASVVCLLNNFYPREAKVQWKVDNALQSGNSQESVTEQDSKDSTYSLSSTLTLSKADYEKHKVYACEVTHQGLSSPVTKSFNRGEC | 0.379 pM
4 |  |  |  |  |  |  | binds | Binding Protein 3 (other, Trispecific antibody of four chains, IgG4: anti-CD19 Fab arm (knob) and CODV arm anti-CD28 x anti-CD3 (hole); also called anti-CD19×CD28×CD3 IgG4 trispecific antibody; CD19 × (CD28 × CD3)) heavy 1: QVQLVQSGAEVKKPGSSVKVSCKASGYAFSSYWMNWVRQAPGQGLEWIGQIWPGDGDTNYNQKFKGRATLTADESTSTAYMELSSLRSEDTAVYYCARRETTTVGRYYYAMDYWGQGTTVTVSSASTKGPSVFPLAPCSRSTSESTAALGCLVKDYFPEPVTVSWNSGALTSGVHTFPAVLQSSGLYSLSSVVTVPSSSLGTKTYTCNVDHKPSNTKVDKRVESKYGPPCPPCPAPEFLGGPSVFLFPPKPKDTLMISRTPEVTCVVVDVSQEDPEVQFNWYVDGVEVHNAKTKPREEQFNSTYRVVSVLTVLHQDWLNGKEYKCKVSNKGLPSSIEKTISKAKGQPREPQVYTLPPCQEEMTKNQVSLWCLVKGFYPSDIAVEWESNGQPENNYKTTPPVLDSDGSFFLYSKLTVDKSRWQEGNVFSCSVMHEALHNHYTQKSLSLSLGK light 1: DLVLTQSPASLAVSPGQRATITCKASQSVDYDGDSYLNWYQQKPGQPPKLLIYDASNLVSGVPARFSGSGSGTDFTLTINPVEANDTANYYCQQSTEDPWTFGQGTKLEIKRTVAAPSVFIFPPSDEQLKSGTASVVCLLNNFYPREAKVQWKVDNALQSGNSQESVTEQDSKDSTYSLSSTLTLSKADYEKHKVYACEVTHQGLSSPVTKSFNRGEC heavy 2: QVQLVQSGAEVVKPGASVKVSCKASGYTFTSYYIHWVRQAPGQGLEWIGSIYPGNVNTNYAQKFQGRATLTVDTSISTAYMELSRLRSDDTAVYYCTRSHYGLDWNFDVWGKGTTVTVSSSQVQLVESGGGVVQPGRSLRLSCAASGFTFTKAWMHWVRQAPGKQLEWVAQIKDKSNSYATYYADSVKGRFTISRDDSKNTLYLQMNSLRAEDTAVYYCRGVYYALSPFDYWGQGTLVTVSSRTASTKGPSVFPLAPCSRSTSESTAALGCLVKDYFPEPVTVSWNSGALTSGVHTFPAVLQSSGLYSLSSVVTVPSSSLGTKTYTCNVDHKPSNTKVDKRVESKYGPPCPPCPAPEFLGGPSVFLFPPKPKDTLMISRTPEVTCVVVDVSQEDPEVQFNWYVDGVEVHNAKTKPREEQFNSTYRVVSVLTVLHQDWLNGKEYKCKVSNKGLPSSIEKTISKAKGQPREPQVCTLPPSQEEMTKNQVSLSCAVKGFYPSDIAVEWESNGQPENNYKTTPPVLDSDGSFFLVSKLTVDKSRWQEGNVFSCSVMHEALHNHYTQKSLSLSLGK light 2: DIVMTQTPLSLSVTPGQPASISCKSSQSLVHNNANTYLSWYLQKPGQSPQSLIYKVSNRFSGVPDRFSGSGSGTDFTLKISRVEAEDVGVYYCGQGTQYPFTFGSGTKVEIKGQPKAAPDIQMTQSPSSLSASVGDRVTITCQASQNIYVWLNWYQQKPGKAPKLLIYKASNLHTGVPSRFSGSGSGTDFTLTISSLQPEDIATYYCQQGQTYPYTFGQGTKLEIKTKGPSRTVAAPSVFIFPPSDEQLKSGTASVVCLLNNFYPREAKVQWKVDNALQSGNSQESVTEQDSKDSTYSLSSTLTLSKADYEKHKVYACEVTHQGLSSPVTKSFNRGEC | 
5 | 0.00862 µg/mL | 2.4 pM | 2 | 35 kDa | 0.00076 s⁻¹ | 3.16e+08 M⁻¹ s⁻¹ |  | Binding Protein 17 (bispecific antibody, human IgG1, kappa, lambda, Bispecific trivalent (CODV-Fab) × Fab-IgG1 Fc; two IL4 sites, one IL13 site; also called IL4 × (IL13 × IL4); (anti-IL13 × anti-IL4) × anti-IL4) heavy 1: not shown light 1: DIQMTQSPASLSVSVGDTITLTCHASQNIDVWLSWFQQKPGNIPKLLIYKASNLHTGVPSRFSGSGSGTGFTLTISSLQPEDIATYYCQQAHSYPFTFGGGTKLEIKGQPKAAPSVTLFPPSSEELQANKATLVCLISDFYPGAVTVAWKADSSPVKAGVETTTPSKQSNNKYAASSYLSLTPEQWKSHRSYSCQVTHEGSTVEKTVAPTECS heavy 2: not shown light 2: not shown | 
6 | 0.00573 µg/mL | 4.65 pM | 2 | 34 kDa | 0.000385 s⁻¹ | 8.27e+07 M⁻¹ s⁻¹ |  | Binding Protein 19 (bispecific antibody, human IgG1, kappa, lambda, Bispecific trivalent (CODV-Fab) × Fab-IgG1 Fc; two IL4 sites, one IL13 site; also called IL4 × (IL4 × IL13); (anti-IL4 × anti-IL13) × anti-IL4) heavy 1: not shown light 1: DIQMTQSPASLSVSVGDTITLTCHASQNIDVWLSWFQQKPGNIPKLLIYKASNLHTGVPSRFSGSGSGTGFTLTISSLQPEDIATYYCQQAHSYPFTFGGGTKLEIKGQPKAAPSVTLFPPSSEELQANKATLVCLISDFYPGAVTVAWKADSSPVKAGVETTTPSKQSNNKYAASSYLSLTPEQWKSHRSYSCQVTHEGSTVEKTVAPTECS heavy 2: not shown light 2: not shown | 
